Protein stability index data for 94 variants are collected here from the supplement of paper PMC10567573.

First the molecules themselves.
B1: TCAP (parent)
chain: YQRVLPLPIFTPAKMGATKEERED
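Note: lentivirally expressed fusions sorted by FACS into six bins by GFP to DsRed ratio, PSI derived from sequencing read proportions per bin multiplied by bin number.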

In this data set the parent is B1. Briefly: protein stability index of a GFP-peptide fusion (GPS, HEK-293T) (PSI 1-6); higher = more stable. As to conditions: c terminus: a fixed tail appended.
For the variant YQRVLPLPINTPAKMGATKEERED, the protein stability index was 4.05. Consider YQRVLPLPIGTPAKMGATKEERED, for which the protein stability index turned out to be 4.44. The same measure for YQRVLPLPIITPAKMGATKEERED: 3.72; for YQRVLPLPIQTPAKMGATKEERED: 4.5. For the variant YQRVLPLPILTPAKMGATKEERED, the protein stability index came out at 3.73. As to YQRVLPLPISTPAKMGATKEERED, the protein stability index is 4.06. The same measure for YQRVLPLPICTPAKMGATKEERED: 3.63; for YQRVLPLPIKTPAKMGATKEERED: 4.08. The value for YQRVLPLPIHTPAKMGATKEERED was 3.94; that for YQRVLPLPIRTPAKMGATKEERED was 4.18. The same measure for YQRVLPLPIETPAKMGATKEERED: 4.33; for YQRVLPLPIVTPAKMGATKEERED: 3.65. Turning to YQRVLPLPIPTPAKMGATKEERED, the protein stability index stood at 4.14. The same measure for YQRVLPLPIATPAKMGATKEERED: 4.3. The value for YQRVLPLPITTPAKMGATKEERED was 4.04; that for YQRVLPLPIMTPAKMGATKEERED was 3.71. Take YQRVLPLPIYTPAKMGATKEERED: the protein stability index was determined as 2.48. On to YQRVLPLPIDTPAKMGATKEERED, for which the protein stability index came out at 4.32. As for YQRKLPLPIFTPAKMGATKEERED, the protein stability index was 1.8.

Regarding YQRQLPLPIFTPAKMGATKEERED, the protein stability index stood at 1.9.

Turning to YQRTLPLPIFTPAKMGATKEERED, the protein stability index was determined as 1.88.

On to YQRYLPLPIFTPAKMGATKEERED, for which the protein stability index was 2.26. On to YQRWLPLPIFTPAKMGATKEERED, for which the protein stability index stood at 2.55. The value for YQRFLPLPIFTPAKMGATKEERED was 2.27. The same measure for YQRILPLPIFTPAKMGATKEERED: 2.07; for YQRALPLPIFTPAKMGATKEERED: 1.71; for YQRELPLPIFTPAKMGATKEERED: 1.93. The value for YQRGLPLPIFTPAKMGATKEERED was 2.82; that for YQRPLPLPIFTPAKMGATKEERED was 2.67. As to YQRDLPLPIFTPAKMGATKEERED, the protein stability index is 1.52. As for YQRLLPLPIFTPAKMGATKEERED, the protein stability index was 2.18. Turning to YQRCLPLPIFTPAKMGATKEERED, the protein stability index was determined as 2.

On to YQRMLPLPIFTPAKMGATKEERED, for which the protein stability index worked out at 1.53. The same measure for YQRRLPLPIFTPAKMGATKEERED: 1.7; for YQRNLPLPIFTPAKMGATKEERED: 1.83. Regarding YQRHLPLPIFTPAKMGATKEERED, the protein stability index came out at 1.37. The value for YQRSLPLPIFTPAKMGATKEERED was 1.72; that for YQRVIPLPIFTPAKMGATKEERED was 1.87. Turning to YQRVPPLPIFTPAKMGATKEERED, the protein stability index turned out to be 2.33.

Take YQRVGPLPIFTPAKMGATKEERED: the protein stability index was found to be 2.89. Take YQRVEPLPIFTPAKMGATKEERED: the protein stability index was 2.42. The same measure for YQRVHPLPIFTPAKMGATKEERED: 2.08; for YQRVCPLPIFTPAKMGATKEERED: 1.86. Regarding YQRVNPLPIFTPAKMGATKEERED, the protein stability index came out at 1.8. The same measure for YQRVVPLPIFTPAKMGATKEERED: 1.96; for YQRVYPLPIFTPAKMGATKEERED: 2.37; for YQRVTPLPIFTPAKMGATKEERED: 1.98. The value for YQRVWPLPIFTPAKMGATKEERED was 2.81; that for YQRVMPLPIFTPAKMGATKEERED was 1.9; that for YQRVFPLPIFTPAKMGATKEERED was 2.52. Regarding YQRVAPLPIFTPAKMGATKEERED, the protein stability index was found to be 2.05. Take YQRVDPLPIFTPAKMGATKEERED: the protein stability index was found to be 3.06. In the case of YQRVQPLPIFTPAKMGATKEERED, the protein stability index is 2.03. The value for YQRVKPLPIFTPAKMGATKEERED was 2.13; that for YQRVSPLPIFTPAKMGATKEERED was 1.97; that for YQRVRPLPIFTPAKMGATKEERED was 2.7. YQRVLPLPIFTPDKMGATKEERED: the protein stability index came to 2.95. The value for YQRVLPLPIFTPFKMGATKEERED was 2.04; that for YQRVLPLPIFTPIKMGATKEERED was 2.18; that for YQRVLPLPIFTPCKMGATKEERED was 1.72. Regarding YQRVLPLPIFTPGKMGATKEERED, the protein stability index was determined as 2.38. The value for YQRVLPLPIFTPLKMGATKEERED was 1.76.

As to YQRVLPLPIFTPHKMGATKEERED, the protein stability index stood at 1.69. The value for YQRVLPLPIFTPKKMGATKEERED was 2.44; that for YQRVLPLPIFTPEKMGATKEERED was 2.9; that for YQTVLPLPIFTPAKMGATKEERED was 2.05. The same measure for YQVVLPLPIFTPAKMGATKEERED: 2.09; for YQYVLPLPIFTPAKMGATKEERED: 4.55; for YQLVLPLPIFTPAKMGATKEERED: 1.86.

For the variant YQNVLPLPIFTPAKMGATKEERED, the protein stability index is 2.46. The value for YQWVLPLPIFTPAKMGATKEERED was 2.69. On to YQSVLPLPIFTPAKMGATKEERED, for which the protein stability index came out at 2.3. The value for YQQVLPLPIFTPAKMGATKEERED was 2.78; that for YQMVLPLPIFTPAKMGATKEERED was 3.43; that for YQPVLPLPIFTPAKMGATKEERED was 1.55. The value for YQRVLPLEIFTPAKMGATKEERED was 2.46; that for YQRVLPLDIFTPAKMGATKEERED was 1.57. In the case of YQRVLPLYIFTPAKMGATKEERED, the protein stability index was 2.51. The same measure for YQRVLPLTIFTPAKMGATKEERED: 2.32; for YQRVLPLLIFTPAKMGATKEERED: 1.64. For YQRVLPLRIFTPAKMGATKEERED, the protein stability index was 1.88. The same measure for YQRVLPLMIFTPAKMGATKEERED: 2.36.

Turning to YQRVLPLVIFTPAKMGATKEERED, the protein stability index stood at 2. The value for YQRVLPLKIFTPAKMGATKEERED was 2.18; that for YQRVLPLWIFTPAKMGATKEERED was 2.73; that for YQRVLPLNIFTPAKMGATKEERED was 2.11.

On to YQRVLPLAIFTPAKMGATKEERED, for which the protein stability index was found to be 1.96. The value for YQRVLPLQIFTPAKMGATKEERED was 2.12. In the case of YQRVLPLFIFTPAKMGATKEERED, the protein stability index turned out to be 1.45.

For the variant YQRVLPLHIFTPAKMGATKEERED, the protein stability index amounted to 2.15.

Turning to YQRVLPLCIFTPAKMGATKEERED, the protein stability index came to 2.62. The same measure for YQRVLPLGIFTPAKMGATKEERED: 1.37; for YQRVLPLIIFTPAKMGATKEERED: 2.15. The value for YQRVLPRPIFTPAKMGATKEERED was 3.08.
